The values below come from patent US20160168212A1 (RAMOT AT TEL AVIV UNIVERSITY, published 2016).

The test has as its target α-synuclein (recombinant, monomeric fraction) (UniProt P37840 1-140). The experiment in a line: fluorescence anisotropy; α-syn monomers titrated into the Trp-containing peptide. The method, then: The solution was immediately mixed with α-syn monomer stock solution to varying final concentrations. The peptide polarization measurements were carried out using an ISS K2 fluorometer. The solutions were excited at 280 nm and emission was monitored at 350 nm. For each single point, at least five measurements were collected and their average values were used for the calculation. All experiments were performed using ultra pure water.
(In general: Fluorescence polarisation rises when a labelled molecule tumbles more slowly, as on binding a larger partner.)

B1: β-syn 36 in which tyrosine was substituted with tryptophan (peptide)
peptide: GVLWVGSKTR
notes: also called β-syn 36 containing Tryptophan instead of Tyrosine
What is called Kd is the free concentration of one partner at which half of the binding sites on the other are occupied at equilibrium, for simple one-to-one binding. On to B1, for which the Kd was roughly 1000 nM.
